According to the supplement of paper PMC10567573:

B1: C9orf9 (parent)
chain: LTKASLKPRGCSKPPWRPPGGKL

Variants of: B1
Assay: protein stability index of a GFP-peptide fusion (GPS, HEK-293T) (PSI 1-6); higher = more stable
Conditions: c terminus: native
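Note: lentivirally expressed fusions sorted by FACS into six bins by GFP to DsRed ratio, PSI derived from sequencing read proportions per bin multiplied by bin number.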

Variant | protein stability index
LTKASLKPRGCFKPPWRPPGGKL [S12F] | 1.3
LTKASLKPRGCTKPPWRPPGGKL [S12T] | 3.8
LTKASLKPRGCAKPPWRPPGGKL [S12A] | 2.42
LTKASLKPRGCCKPPWRPPGGKL [S12C] | 1.49
LTKASLKPRGCNKPPWRPPGGKL [S12N] | 2.05
LTKASLKPRGCGKPPWRPPGGKL [S12G] | 1.99
LTKASLKPRGCHKPPWRPPGGKL [S12H] | 1.53
LTKASLKPRGCLKPPWRPPGGKL [S12L] | 1.66
LTKASLKPRGCSKPPIRPPGGKL [W16I] | 1.87
LTKASLKPRGCSKPPGRPPGGKL [W16G] | 2.29
LTKASLKPRGCSKPPERPPGGKL [W16E] | 2.19
LTKASLKPRGCSKPPFRPPGGKL [W16F] | 2.03
LTKASLKPRGCSKPPYRPPGGKL [W16Y] | 2.25
LTKASLKPRGCSKPPVRPPGGKL [W16V] | 3.43
LTKASLKPRGCSKPPWWPPGGKL [R17W] | 3.47
LTKASLKPRGCSKPPWVPPGGKL [R17V] | 3.35
LTKASLKPRGCSKPPWQPPGGKL [R17Q] | 4.16
LTKASLKPRGCSKPPWMPPGGKL [R17M] | 3.49
LTKASLKPRGCSKPPWLPPGGKL [R17L] | 3.69
LTKASLKPRGCSKPPWDPPGGKL [R17D] | 3.87
LTKASLKPRGCSKPPWAPPGGKL [R17A] | 3.53
LTKASLKPRGCSKPPWKPPGGKL [R17K] | 3.26
LTKASLKPRGCSKPPWNPPGGKL [R17N] | 4.2
LTKASLKPRGCSKPPWPPPGGKL [R17P] | 2.71
LTKASLKPRGCSKPPWFPPGGKL [R17F] | 3.37

Variant | protein stability index
LTKASLKPRGCSKPPWSPPGGKL [R17S] | 4.71
LTKASFKPRGCSKPPWRPPGGKL [L6F] | 2.35
LTKASTKPRGCSKPPWRPPGGKL [L6T] | 1.87
LTKASQKPRGCSKPPWRPPGGKL [L6Q] | 4.53
LTKASYKPRGCSKPPWRPPGGKL [L6Y] | 2.04
LTKASIKPRGCSKPPWRPPGGKL [L6I] | 1.37
LTKASHKPRGCSKPPWRPPGGKL [L6H] | 1.89
LTKASSKPRGCSKPPWRPPGGKL [L6S] | 2.47
LTKASRKPRGCSKPPWRPPGGKL [L6R] | 2.17
LTKASPKPRGCSKPPWRPPGGKL [L6P] | 1.9
LTKASDKPRGCSKPPWRPPGGKL [L6D] | 1.5
LTKASLKPRGCSEPPWRPPGGKL [K13E] | 3.46
LTKASLKPRGCSDPPWRPPGGKL [K13D] | 3.65
LTKASLKPRGCSGPPWRPPGGKL [K13G] | 2.78
LTKASLKPRGCSRPPWRPPGGKL [K13R] | 1.49
LTKASLKPRGCSMPPWRPPGGKL [K13M] | 2.87
LTKASLKPRGCSSPPWRPPGGKL [K13S] | 2.62
LTKASLKPRGCSIPPWRPPGGKL [K13I] | 2.1
LTKASLKPRGCSQPPWRPPGGKL [K13Q] | 2.3
LTKASLKPRGCSCPPWRPPGGKL [K13C] | 2.9
LTKASLKPQGCSKPPWRPPGGKL [R9Q] | 2.68
LTKASLKPVGCSKPPWRPPGGKL [R9V] | 2.91
LTKASLKPYGCSKPPWRPPGGKL [R9Y] | 3.3
LTKASLKPHGCSKPPWRPPGGKL [R9H] | 1.35
LTKASLKPIGCSKPPWRPPGGKL [R9I] | 1.85

Variant | protein stability index
LTKASLKPPGCSKPPWRPPGGKL [R9P] | 1.34
LTKASLKPMGCSKPPWRPPGGKL [R9M] | 2.33
LTKASLKPWGCSKPPWRPPGGKL [R9W] | 2.31
LTKASLKPNGCSKPPWRPPGGKL [R9N] | 2.07
LTKASLKPGGCSKPPWRPPGGKL [R9G] | 1.37
LTKASLKPCGCSKPPWRPPGGKL [R9C] | 3.36
LTKASLKPFGCSKPPWRPPGGKL [R9F] | 1.15
LTKASLKPLGCSKPPWRPPGGKL [R9L] | 2.96
LTKASLKPSGCSKPPWRPPGGKL [R9S] | 1.95
LTKASLKPEGCSKPPWRPPGGKL [R9E] | 1.9
LTKASLKPAGCSKPPWRPPGGKL [R9A] | 1.7
LTKASLKPTGCSKPPWRPPGGKL [R9T] | 1.45
LTKWSLKPRGCSKPPWRPPGGKL [A4W] | 2.44
LTKASLKPRGCSKPPWRPSGGKL [P19S] | 3.87
LTKASLKPRGCSKPPWRPVGGKL [P19V] | 1.78
LTKASLKPRGCSKPPWRPFGGKL [P19F] | 1.69
LTKASLKPRGCSKPPWRPRGGKL [P19R] | 2.6
LTKASLKPRGCSKPPWRPEGGKL [P19E] | 4.05
LTKASLKPRGCSKPPWRPCGGKL [P19C] | 2.91
LTKASLKPRGCSKPPWRPYGGKL [P19Y] | 1.22
LTKASLKPRGCSKPPWRPTGGKL [P19T] | 3.72
LTKASLKPRGCSKPPWRPGGGKL [P19G] | 3.44
LTKASLKPRGCSKPPWRPLGGKL [P19L] | 3.21
LTKASLKPRGCSKPPWRPMGGKL [P19M] | 3.15
LTKASLKPRGCSKPPWRPNGGKL [P19N] | 4.1

Variant | protein stability index
LTKASLKPRGCSKPPWRPIGGKL [P19I] | 1.24
LTKASLKPRGCSKPPWRPHGGKL [P19H] | 2.23
LTKASLKPRGCSKPPWRPDGGKL [P19D] | 4.43
LTKASLKPRMCSKPPWRPPGGKL [G10M] | 2.19
LTKASLKPRRCSKPPWRPPGGKL [G10R] | 3.37
LTKASLKPRTCSKPPWRPPGGKL [G10T] | 2.5
LTKASLKPRDCSKPPWRPPGGKL [G10D] | 2.36
LTKASLKPRPCSKPPWRPPGGKL [G10P] | 2.24
LTKASLKPRYCSKPPWRPPGGKL [G10Y] | 2.25
LTKASLKPRQCSKPPWRPPGGKL [G10Q] | 1.88
LTKASLKPRKCSKPPWRPPGGKL [G10K] | 2.43
LTKASLKPRCCSKPPWRPPGGKL [G10C] | 1.97
LTKASLKPRACSKPPWRPPGGKL [G10A] | 2.74
LTKASLKPRNCSKPPWRPPGGKL [G10N] | 2.06
LTKASLKPRHCSKPPWRPPGGKL [G10H] | 2.29
LTKASLKPRSCSKPPWRPPGGKL [G10S] | 2.7
LTKASLKPRFCSKPPWRPPGGKL [G10F] | 1.91
LTKASLKPRICSKPPWRPPGGKL [G10I] | 2.47
LTKASLKPRECSKPPWRPPGGKL [G10E] | 2.18
LTKASLKPRLCSKPPWRPPGGKL [G10L] | 2.96
LTKASLKPRVCSKPPWRPPGGKL [G10V] | 2.19
LTKASLKPRWCSKPPWRPPGGKL [G10W] | 2.02
